Data: US20080219985A1
Where two headings read alike, the source gives them in different places.

How the values were obtained:
Assay in all cases: cell-based or functional assay
GPCR73a receptor (human) [1] = target: GPCR73a receptor (human) (UniProt Q8TCW9)
[2] = target: PROK2 receptor on Wky12-22 cells (rat aortic smooth muscle cells) (rat)
[3] = target: GPCR73b receptor (Homo sapiens (Human)) (UniProt Q8NFJ6)
GPCR73a receptor (human) [4] = target: GPCR73a receptor (human) (UniProt Q8TCW9); remark: listed apart in the source
[5] = target: GPCR73b receptor (Homo sapiens (Human)) (UniProt Q8NFJ6); remark: listed apart in the source

Sequence of GPCR73a receptor (human) (Q8TCW9 whole entry): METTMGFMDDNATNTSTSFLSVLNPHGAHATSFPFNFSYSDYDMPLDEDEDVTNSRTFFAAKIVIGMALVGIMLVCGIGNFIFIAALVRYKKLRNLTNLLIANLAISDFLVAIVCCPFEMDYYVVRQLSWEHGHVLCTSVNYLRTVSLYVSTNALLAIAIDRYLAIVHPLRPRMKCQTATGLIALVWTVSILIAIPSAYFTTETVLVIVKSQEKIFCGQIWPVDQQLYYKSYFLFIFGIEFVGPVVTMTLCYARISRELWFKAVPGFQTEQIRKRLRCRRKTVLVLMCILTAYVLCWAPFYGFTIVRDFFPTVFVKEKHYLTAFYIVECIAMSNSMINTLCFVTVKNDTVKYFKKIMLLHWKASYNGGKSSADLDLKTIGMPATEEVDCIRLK
Sequence of GPCR73b receptor (Homo sapiens (Human)) (Q8NFJ6 whole entry): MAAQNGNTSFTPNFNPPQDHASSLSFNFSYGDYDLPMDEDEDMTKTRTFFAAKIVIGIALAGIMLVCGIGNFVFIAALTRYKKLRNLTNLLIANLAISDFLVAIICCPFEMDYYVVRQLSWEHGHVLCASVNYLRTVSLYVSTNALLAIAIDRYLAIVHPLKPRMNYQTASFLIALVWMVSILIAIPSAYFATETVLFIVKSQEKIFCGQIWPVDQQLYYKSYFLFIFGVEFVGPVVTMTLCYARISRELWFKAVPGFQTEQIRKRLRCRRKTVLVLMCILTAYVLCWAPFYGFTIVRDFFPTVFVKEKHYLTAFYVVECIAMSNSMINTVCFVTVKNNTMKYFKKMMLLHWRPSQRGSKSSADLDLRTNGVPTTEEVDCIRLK

B1: human PROK1 purchased from PeproTech (ligand)
chain: AVITGACERDVQCGAGTCCAISLWLRGLRMCTPLGREGEECHPGSHKVPFFRKRKHHTCPCLPNLLCSRFPDGRYRCSMDLKNINF
GPCR73a receptor (human) [1]
  SRE-luciferase fold-induction at 1 ng/ml (fold-induction): 1.2
  SRE-luciferase fold-induction at 3.2 ng/ml (fold-induction): 1.6
  SRE-luciferase fold-induction at 10 ng/ml (fold-induction): 2.5
  SRE-luciferase fold-induction at 32 ng/ml (fold-induction): 5.8
  SRE-luciferase fold-induction at 100 ng/ml (fold-induction): 11.4
  SRE-luciferase fold-induction at 320 ng/ml (fold-induction): 24.4
  SRE-luciferase fold-induction at 1000 ng/ml (fold-induction): 20
[2]
  EC50 of GROα secretion from Wky12-22 cells: 2.94 ng/mL
[3]
  SRE-luciferase fold-induction at 1 ng/ml (fold-induction): 1.1
  SRE-luciferase fold-induction at 3.2 ng/ml (fold-induction): 1.3
  SRE-luciferase fold-induction at 10 ng/ml (fold-induction): 1.8
  SRE-luciferase fold-induction at 32 ng/ml (fold-induction): 2.8
  SRE-luciferase fold-induction at 100 ng/ml (fold-induction): 5.6
  SRE-luciferase fold-induction at 320 ng/ml (fold-induction): 8.3
  SRE-luciferase fold-induction at 1000 ng/ml (fold-induction): 8.4
GPCR73a receptor (human) [4]
  SRE-luciferase fold-induction at 1 ng/ml (fold-induction): 0.95
  SRE-luciferase fold-induction at 3.2 ng/ml (fold-induction): 1.3
  SRE-luciferase fold-induction at 10 ng/ml (fold-induction): 2.6
  SRE-luciferase fold-induction at 32 ng/ml (fold-induction): 7.2
  SRE-luciferase fold-induction at 320 ng/ml (fold-induction): 20.5
  SRE-luciferase fold-induction at 1000 ng/ml (fold-induction): 15
[5]
  SRE-luciferase fold-induction at 3.2 ng/ml (fold-induction): 1.4
  SRE-luciferase fold-induction at 32 ng/ml (fold-induction): 2.7
  SRE-luciferase fold-induction at 100 ng/ml (fold-induction): 4.1
  SRE-luciferase fold-induction at 320 ng/ml (fold-induction): 5.8
  SRE-luciferase fold-induction at 1000 ng/ml (fold-induction): 6.1
